Laboratory results: patent US20140234868A1, “USE FOR GLYCOLIPOPROTEIN GINTONIN, ISOLATED AND IDENTIFIED FROM GINSENG, AS A NATURAL MEDICAL-PLANT DERIVED LIGAND” (KONKUK UNIVERSITY INDUSTRIAL COOPERATION CORP., priority 2011, published 2014)

What was measured:
[1] = tested on: mice; assay: Passive avoidance test, scopolamine-caused long-term memory impairment; assay type: in vivo, mouse
Method: ICR male mice (25-28 g), purchased from Oriental Bio (Seoul, Korea), were bred according to the guideline of the Institutional Animal Care and Use Committee of Konkuk University, and subjected to passive avoidance test to examine memory maintenance impairment and the protection of gintonin against memory impairment according to the method of Yang et al. (Yang et al., Biol Pharm Bull 32, 1710-1715, 2009).
A passive avoidance test was performed in a training chamber which was divided into two compartments (20×20×20 cm in size, each) separated by an automatically moving guillotine door (5×5 cm): one compartment was lighted while the other remained dark where metal rods installed in a lattice pattern on the bottom so as to deliver an electrical foot shock (Gemini Avoidance System, San Diego, USA).
For an acquisition trial, a mouse was first placed in the lighted compartment, facing away from the dark compartment and allowed to explore for 10 sec. After 10 sec, the guillotine door was opened and the mouse was allowed to explore freely. When the mouse entered the dark compartment with all four paws according to its habit, the guillotine door was closed, and a footshock (0.5 mA, 3 sec duration) was delivered. The latency time to enter the dark compartment was recorded (from the time the door was lifted). 120 min before experimentation, gintonin (25, 50, 100 mg/kg, p.o) was administered while tacrine (10 mg/kg, p.o) was used as a positive control. Memory impairment was induced by injecting scopolamine (0.9 mg/kg, i.p.) 30 min after gintonin or tacrine administration (Araujo et al., Prog Neuropsycopharmcol Biol Psychiatry 29, 411-422, 2005). For a negative control, a physiological saline was used.
24 Hours after the learning session, an experiment was performed without injecting gintonin. The mouse was positioned again in the lighted compartment. After 10 sec of acclimation, the latency time to enter the dark compartment was recorded (from the time the door was lifted).

[2] = target: T1, LPA3 receptor (Homo sapiens, UniProt Q9UBY5); assay: Intracellular cAMP level in LPA3-expressing B103 cells; assay type: cell-based
T1 construct: host or cells: B103 rat neuroblastoma cells
T1 sequence (Q9UBY5 1-353): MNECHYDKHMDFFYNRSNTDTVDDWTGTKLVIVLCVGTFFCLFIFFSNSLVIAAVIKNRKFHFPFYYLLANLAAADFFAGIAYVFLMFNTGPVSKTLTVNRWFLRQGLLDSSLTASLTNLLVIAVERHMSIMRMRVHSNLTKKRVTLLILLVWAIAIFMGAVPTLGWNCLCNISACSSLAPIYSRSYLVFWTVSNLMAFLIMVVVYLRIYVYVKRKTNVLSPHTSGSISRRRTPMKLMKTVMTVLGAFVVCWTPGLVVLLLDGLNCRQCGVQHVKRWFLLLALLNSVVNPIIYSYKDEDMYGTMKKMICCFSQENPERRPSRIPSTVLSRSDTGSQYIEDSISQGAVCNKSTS
Excerpt: (§1) After treatment with gintonin, B103 cells expressing LPA3 or LPA6 receptor were examined for change in intracellular cAMP level.

[3] = target: T2, LPA6 receptor (Homo sapiens, UniProt P43657); assay: Intracellular cAMP level in LPA6-expressing B103 cells; assay type: cell-based
T2 construct: host or cells: B103 rat neuroblastoma cells
T2 sequence (P43657 1-344): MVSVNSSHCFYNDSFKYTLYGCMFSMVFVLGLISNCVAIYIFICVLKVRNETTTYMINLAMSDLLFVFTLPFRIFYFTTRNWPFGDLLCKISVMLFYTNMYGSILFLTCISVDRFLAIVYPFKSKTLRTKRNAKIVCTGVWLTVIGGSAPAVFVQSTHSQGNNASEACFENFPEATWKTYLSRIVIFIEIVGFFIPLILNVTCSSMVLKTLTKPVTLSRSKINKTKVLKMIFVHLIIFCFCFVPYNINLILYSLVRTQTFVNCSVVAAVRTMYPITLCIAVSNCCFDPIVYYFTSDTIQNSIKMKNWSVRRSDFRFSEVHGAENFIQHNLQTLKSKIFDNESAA
Excerpt: as §1

[4] = tested on: HUVECs; assay: HUVEC proliferation, BrDU incorporation ELISA; assay type: cell-based, human; details: gintonin 24 hrs
Method: In this Example, gintonin was examined for effect on cell growth. In this regard, HUVECs (human umbilical vein endothelial cells) were cultured with BrDU in the presence of gintonin, and analyzed for relative BrDU content by BrDU assay (Won et al., J Pharmacol Sci 108, 372-379, 2008; Chen et al., Cell Physiol Biochem 22, 307-314, 2008) using a BrDU cell proliferation ELISA kit (Roche, Germany).
Briefly, cells were seeded at a density of 3×10^3 cells/well into 96-well plates one day before treatment with gintonin. After 24 hrs of incubation, the cells were cultured for 6 hrs in a fresh M199 medium supplemented with […]. Again, the medium was changed to a fresh M199 medium supplemented with […], after which the cells were incubated with gintonin for 24 hrs. For an additional 24 hrs, the cells were incubated with a BrDU labeling reagent. After medium was removed, the cells were washed with 10% FBS-supplemented M199, fixed with a fixative, and quantitatively analyzed for relative intracellular BrDU content using an anti-BrDU-peroxidase antibody and a luminometer (Veritas, Turner Biosystems, USA).

B1: gintonin: ginseng-derived glycolipoprotein; structural protein of ginseng major latex-like protein (MLP151) and ribonuclease-like storage proteins; crude gintonin used in tests (protein)
chain 1: MGLTGKLICQTGIKSDGDVFHELFGTRPHHVPNITPANIQGCDLHEGEFGKVGSVVIWNYSIDGNAMIAKEEIVAIDEEDKSVTFKVVEGHLFEEFKSIVFSVHVDTKGEDNLVTWSIDYEKLNESVKDPTSYLDFLLSVTRDIEAHHLPK
chain 2: RSDYPWAMFALRLQWPAGFCEVNNACDTKSLLNTFTIHGLYPYNAKGTPALYCDGTAFDVNSVSDFLAEMHLAWPSHETNTEDIQFWEHEWKKHGRCSEALLKQTDYFRTALAFRKAFDIVGLLNQEGIYPNNDLYRPKMIKEAIKKHLNAVPEIDFTKNENSEYVLTDINVCVNQQATRFVDCPTDDATDDYRLKFVRLPSKMKFADPRTNSII
latency time ([1]; gintonin 25 mg/kg p.o. + scopolamine 0.9 mg/kg i.p.): 78.24 ± 7.83 s | latency time ([1]; gintonin 50 mg/kg p.o. + scopolamine 0.9 mg/kg i.p.): 169.22 ± 12.97 s | latency time ([1]; gintonin 100 mg/kg p.o. + scopolamine 0.9 mg/kg i.p.): 183.43 ± 10.89 s | change in intracellular cAMP level [2]: no influences on intracellular cAMP level | change in intracellular cAMP level [3]: no influences on intracellular cAMP level | incorporation of Br-DU into DNA [4]: increase the incorporation of Br-DU into the DNA of HUVECs in a concentration-dependent manner
